From article PMC4359370 come the findings set out here.

Where only a bound is given, the exact number is not on record here.

In assay [1] the target is POT1-TPP1 E215K complex (wild-type POT1 with TPP1N E215K) (human) (UniProt Q9NUX5).
Assay [2] deals with POT1-TPP1 E169K complex (wild-type POT1 with TPP1N E169K) (human) (UniProt Q9NUX5).
The target of assay [3] is wild-type POT1-TPP1 complex (POT1-TPP1N) (human) (UniProt Q9NUX5).
For the next assay, the target named is GFP-TPP1-OB-LacI (human). In words: LacI-LacO tethering assay (co-localisation of GFP and mCherry foci); GFP-TPP1-OB-LacI tethered to a single LacO array on chromosome 1 of U2OS 2-6-3 cells, co-transfected with mCherry-hTERT and hTR; fixed cells, intrinsic fluorescence; fraction of nuclei with co-localised foci (n = 3, 117-176 nuclei total).
Assay [4] addresses wild-type POT1-TPP1 complex (POT1-TPP1N) (human) (UniProt Q9NUX5). This is another data set of the same source.
Assay [5] has as its target POT1-TPP1 E215K complex (wild-type POT1 with TPP1N E215K) (human) (UniProt Q9NUX5). This is another data set of the same source.
Assay [6] has as its target POT1-TPP1 E169K complex (wild-type POT1 with TPP1N E169K) (human) (UniProt Q9NUX5). The source holds these as a separate data set.

Sequence of GFP-TPP1-OB-LacI (human) (Q96AP0 whole entry): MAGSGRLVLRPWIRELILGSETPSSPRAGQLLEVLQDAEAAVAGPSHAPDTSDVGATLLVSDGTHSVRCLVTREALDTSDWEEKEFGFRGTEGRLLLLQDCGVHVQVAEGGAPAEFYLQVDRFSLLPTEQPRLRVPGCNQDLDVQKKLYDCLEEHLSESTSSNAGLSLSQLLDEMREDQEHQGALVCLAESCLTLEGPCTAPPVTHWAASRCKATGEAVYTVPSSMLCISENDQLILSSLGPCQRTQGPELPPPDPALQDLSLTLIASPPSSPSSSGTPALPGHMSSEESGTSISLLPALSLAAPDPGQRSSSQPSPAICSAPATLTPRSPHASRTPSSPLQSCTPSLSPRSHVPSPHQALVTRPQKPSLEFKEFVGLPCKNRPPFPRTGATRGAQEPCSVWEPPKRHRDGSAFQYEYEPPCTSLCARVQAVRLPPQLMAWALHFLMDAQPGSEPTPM

For the substance “hTERT R132E telomerase (ZZ-TEV-3xFlag-hTERT R132E with hTR) (from UniProt O14746 1-1132) (enzyme)”, the RAP stimulation by POT1-TPP1 relative to wild-type telomerase and wild-type TPP1 (direct telomerase activity assay) in assay [1] and in assay [2] was under 23% in each case. For the same substance, the RAP stimulation by PT % of WT (direct telomerase activity assay) in assay [3] was 24 % of WT. With “hTERT R142E telomerase (ZZ-TEV-3xFlag-hTERT R142E with hTR) (from UniProt O14746 1-1132) (enzyme)”, the RAP stimulation by PT % of WT (direct telomerase activity assay) in assay [3] was 103 % of WT.

Consider “hTERT K78A telomerase (ZZ-TEV-3xFlag-hTERT K78A with hTR) (from UniProt O14746 1-1132) (enzyme)”, for which the RAP stimulation by PT % of WT (direct telomerase activity assay) in assay [3] is 88 % of WT.

With “hTERT K78E;R120E telomerase (ZZ-TEV-3xFlag-hTERT with hTR) (from UniProt O14746 1-1132) (enzyme)”, in assay [3], the RAP stimulation by PT % of WT (direct telomerase activity assay) is 38 % of WT. Same read-out and setting: the same measure for “hTERT R72E telomerase (ZZ-TEV-3xFlag-hTERT R72E with hTR) (from UniProt O14746 1-1132) (enzyme)”: 91 % of WT; for “hTERT R120E telomerase (ZZ-TEV-3xFlag-hTERT R120E with hTR) (from UniProt O14746 1-1132) (enzyme)”: 55 % of WT. For “hTERT K78E;R132E telomerase (ZZ-TEV-3xFlag-hTERT with hTR) (from UniProt O14746 1-1132) (enzyme)”, the RAP stimulation by POT1-TPP1 relative to wild-type telomerase and wild-type TPP1 (direct telomerase activity assay) in assay [1] and in assay [2] was under 23% throughout. For the same substance, the RAP stimulation by PT % of WT (direct telomerase activity assay) in assay [3] was 18 % of WT. With “hTERT K78E telomerase (ZZ-TEV-3xFlag-hTERT K78E with hTR) (from UniProt O14746 1-1132) (enzyme)”, the RAP stimulation by POT1-TPP1 relative to wild-type telomerase and wild-type TPP1 (direct telomerase activity assay) is 98% in assay [1] and under 24% in assay [2]. In assay [3], the RAP stimulation by PT % of WT (direct telomerase activity assay) was 68 % of WT. Turning to “mCherry-hTERT K78E (with hTR) (from UniProt O14746 1-1132) (enzyme)”, in the assay with GFP-TPP1-OB-LacI (human), the fraction of TPP1-OB-fold domain foci showing telomerase signal came to 55%. As to “hTERT R87E;R91E;K94E telomerase (ZZ-TEV-3xFlag-hTERT with hTR) (from UniProt O14746 1-1132) (enzyme)”, in assay [3], the RAP stimulation by PT % of WT (direct telomerase activity assay) was 61 % of WT.

In the case of “hTERT V144M telomerase (ZZ-TEV-3xFlag-hTERT V144M with hTR) (from UniProt O14746 1-1132) (enzyme)”, the POT1-TPP1 RAP stimulation compared to wild-type telomerase (direct telomerase activity assay) in assay [4] came out at 61%. Moreover, the RAP stimulation by POT1-TPP1 relative to wild-type telomerase with wild-type POT1-TPP1 (direct telomerase activity assay) in assay [5] stood at 37%; in assay [6] it was 28%. Besides, the RAP stimulation by PT % of WT (direct telomerase activity assay) in assay [3] is 44 % of WT.

Take “mCherry-hTERT wild type (with hTR) (from UniProt O14746 1-1132) (enzyme)”: the fraction of nuclei with co-localisation in the assay with GFP-TPP1-OB-LacI (human) came to 90%. Substance “mCherry-hTERT R132E (with hTR) (from UniProt O14746 1-1132) (enzyme)” returned a fraction of TPP1-OB-fold domain foci showing telomerase signal with GFP-TPP1-OB-LacI (human) of 30%. Consider “wild-type telomerase (ZZ-TEV-3xFlag-hTERT with hTR) (from UniProt O14746 1-1132) (enzyme)”, for which the RAP stimulation by POT1-TPP1 relative to wild-type telomerase and wild-type TPP1 (direct telomerase activity assay) was 78% in assay [1] and under 24% in assay [2].
